Experimental data from patent US20260193363A1 (US Dept. of Health and Human Services, published 2026).
Numbering of substitutions follows the chain as printed.

B1: monoclonal antibody 3D10 (antibody, V domains shown)
VH: QVQLKQSGPGLVQPSQSLSIICTVSGFSLTRNGVHWVRQSPGKGLEWVGVIWRSGRTDYDAAFMSRLSITKDNSKSQVFFKMNSLQADDTAIYYCVKNGDDGNYGTYWGQGTLVTVSA
VL: DIVMSQSPSSLGVSVGEKVTMSCKSSQSLLDSRNQKNYLAWYQQKPGQSPKLLIYWASTRESGVPDRFTGSGSGTEFTLTISSVKAEDLAIYYCQQYYNYPYTFGGGTKLEIT
B2: monoclonal antibody 9G11 (antibody, V domains shown)
VH: B1 VH with I21T, S54G
VL: B1 VL
B3: 40H3 MMAE antibody drug conjugate (antibody, V domains shown)
VH: QVQLKQSGPGLVQPSQSLSITCTVSGFSLTNYGIHWLRQSPGKGLEWLGMMWRGGGTDYNAAFISRLTITKDTSKSQVFFRMNNLQTNDTAIYYCARKGVGMGLGYWGQGTSVTVSS
VL: DIQMTQSPASQSASLGESVTITCLASQTIGTWVAWYQQKPGRSPQLLIYGATNLADGVPSRFSGSGSGTKFSFKISSLQAEDFVSYYCQQLYSNPYTFGGGTKLEIK
B4: monoclonal antibody 40H3 (antibody, V domains shown)
VH: B3 VH
VL: B3 VL
notes: also called ma40H3 GS; 40H3 (full length antibody)
B5: 40H3 DM1 antibody drug conjugate (antibody, V domains shown)
VH: B3 VH
VL: B3 VL
B6: monoclonal antibody 11E11 (antibody, V domains shown)
VH: QVQLKQSGPSLVQPSQSLSITCTVSGFSLTNYGVHWIRQSPGKGLEWLGVKWRGGRTDYNAAFMSRLSITRDNSRSQVFFKMNSLQTDDTAIYYCAKNGPFGNFAGYWGQGTLVTVSA
VL: DIVMSQSPSSLAVSVGEKVSLTCKSSQSLLDNQKHYLAWYQQKPGQSPKLLIYWASTRESGVPDRFTGSGSGTEFTLTISSVKAEDLAVYYCQQFYNYPYTFGGGTKLEIK
B7: monoclonal antibody 1D9 (antibody, V domains shown)
VH: B6 VH with P9R, N31D, K51I, G54S, A62V, R71K, R75K, S84G, L113P, T115A
VL: DIVMSQSPSSLAVSVGEKVTMRCRSSQSLLDSYHQKNYLAWYLQKPGQSPKLLIYWASTRESGVPDRFTGSGSGTDFTLTISSVKAEDLAVYYCQEYYRYPYTFGGGTKLEIK
B8: monoclonal antibody 11G3 (antibody, V domains shown)
VH: B6 VH with I37V, K51M, R71K, T90A, A118T
VL: B6 VL with A12P, Q27R
B9: monoclonal antibody 4A4 (antibody, V domains shown)
VH: QVQLKQSGRSLVQPSQSLSITCTVSGFSLTDYGVHWIRQSPGKGLEWLGVIWRSGRTDYNAVFMSRLSITKDNSKSQVFFKMNGLLIEDTAIYYCAKNGPFGNFAGYWGQGTPVAVSA
VL: B7 VL with V91A

Experiments:
[1] = molecular target: T1, EGFR overexpressed on cancer cell lines MDA-MB-468 and A431 (human, UniProt P00533 25-1210); experiment: flow cytometry, antibodies added at 2 µg/ml, A431 cells
T1 construct: whole, on cells; also called overexpressed EGFR; cancer-expressed EGFR

[2] = molecular target: T1, EGFR overexpressed on cancer cell lines …; experiment: flow cytometry, antibodies added at 2 µg/ml, MDA-MB-468 cells
[3] = molecular target: T2, EGFRvIII on F98npEGFRvIII cells (rat glioma F98 transfected with nonphosphorylated EGFRvIII); experiment: flow cytometry, antibodies added at 2 µg/ml, F98-npEGFRvIII cells
T2 construct: whole, on cells; also called F98-EGFRvIII

[4] = molecular target: T3, wild-type EGFR extracellular domain, His-tagged (human, UniProt P00533 25-645); experiment: ELISA, hybridoma supernatant on His-tagged ECD on nickel-coated 96-well plate, OD450
T3 construct: extracellular domain; also called wtEGFR-His; EGFRwt ECD

[5] = molecular target: T3, wild-type EGFR extracellular domain, …; experiment: ELISA, purified antibody on His-tagged ECD, OD450
[6] = molecular target: EGFRvIII on DKMG-EGFRvIII cells (human glioblastoma line DKMG transduced with EGFRvIII); experiment: cell-based or functional assay
[7] = molecular target: T4, EGFRvIII extracellular domain, His-tagged (human); experiment: BLI (Octet Red96), His-tagged antigen on Ni-NTA biosensors, antibody in solution, 30 C
T4 construct: extracellular domain; also called EGFRvIII-His; EGFRvIII-HIS

[8] = molecular target: T5, wtEGFR at physiological levels on WI-38 cells (human, UniProt P00533 25-1210); experiment: flow cytometry, antibodies added at 2 µg/ml, WI-38 cells
T5 construct: whole, on cells; also called normal cells

[9] = molecular target: T6, wild-type EGFR on F98EGFR cells (rat glioma F98 transfected with full-length EGFR) (UniProt P00533 25-1210, limits assumed); experiment: flow cytometry, antibodies added at 2 µg/ml, F98-EGFR cells
T6 construct: whole, on cells; also called wtEGFR on transfected F98 cells

| Binder | Median : PE-A [1] | Median : PE-A [2] | Median : PE-A [3] | binding result [4] | binding result [5] | IC50 (nM), cell viability, DKMG EGFRvIII cells [6] [nM] | Kd [7] [nM] | koff [7] [s⁻¹] | kon [7] [M⁻¹ s⁻¹] | Median : PE-A [8] | Median : PE-A [9] |
| --- | --- | --- | --- | --- | --- | --- | --- | --- | --- | --- | --- |
| B1 | 196 | 205 | 1420 | no binding | – | – | – | – | – | – | – |
| B2 | 160 | 166 | 1010 | – | no binding (tested: 5 ng/ml) | – | – | – | – | – | – |
| B3 | – | – | – | – | – | 1.9 | – | – | – | – | – |
| B4 | 3160 | 2140 | 1120 | – | – | – | 0.27 | 4.51e-05 | 167000 | – | – |
| B5 | – | – | – | – | – | 0.56 | – | – | – | – | – |
| B6 | 274 | 216 | 1440 | – | no binding (tested: 5 ng/ml) | – | – | – | – | – | – |
| B7 | 136 | 166 | 1230 | no binding | – | – | – | – | – | 41.4 | 45.5 |
| B8 | 90.3 | 90.3 | – | – | no binding (tested: 5 ng/ml) | – | – | – | – | 39.6 | 37.9 |
| B9 | 83.3 | 130 | 1110 | – | no binding (tested: 5 ng/ml) | – | – | – | – | 48 | 41.7 |
